Data published in article PMC9482650, “Quantitative fragmentomics allow affinity mapping of interactomes” (Nature Communications, 2022).

T1: MPP6, Q9NZW5
T1 sequence (Q9NZW5 125-219, limits assumed, looked up): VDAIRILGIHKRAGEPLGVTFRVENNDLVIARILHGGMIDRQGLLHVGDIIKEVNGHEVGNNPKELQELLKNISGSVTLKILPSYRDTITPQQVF

T2: SIPA1L2, Q9P2F8
T2 sequence (Q9P2F8 945-1036, limits assumed, looked up): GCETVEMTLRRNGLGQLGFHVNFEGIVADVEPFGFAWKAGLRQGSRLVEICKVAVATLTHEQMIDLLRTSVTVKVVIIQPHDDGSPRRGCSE

T3: SNTA1, Q13424
T3 sequence (Q13424 82-180, limits assumed, looked up): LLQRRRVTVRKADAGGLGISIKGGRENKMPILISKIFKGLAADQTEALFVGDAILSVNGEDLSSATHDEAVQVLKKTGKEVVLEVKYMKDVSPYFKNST

T4: NHERF3_4, Q5T2W1
T4 sequence (Q5T2W1 373-468, limits assumed, looked up): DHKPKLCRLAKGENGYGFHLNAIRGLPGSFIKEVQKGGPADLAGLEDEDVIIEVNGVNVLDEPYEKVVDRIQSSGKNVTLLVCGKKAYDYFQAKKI

T5: MPDZ_5, O75970
T5 sequence (O75970 695-796, limits assumed, looked up): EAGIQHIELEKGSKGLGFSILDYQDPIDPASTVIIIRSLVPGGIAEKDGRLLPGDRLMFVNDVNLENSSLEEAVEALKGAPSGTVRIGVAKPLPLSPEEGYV

T6: DLG3_1, Q92796
T6 sequence (Q92796 125-227, limits assumed, looked up): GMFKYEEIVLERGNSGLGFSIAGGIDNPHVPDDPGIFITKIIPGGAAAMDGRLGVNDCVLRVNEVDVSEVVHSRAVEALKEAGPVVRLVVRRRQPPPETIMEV

T7: PDZD2_2, O15018
T7 sequence (O15018 329-429, limits assumed, looked up): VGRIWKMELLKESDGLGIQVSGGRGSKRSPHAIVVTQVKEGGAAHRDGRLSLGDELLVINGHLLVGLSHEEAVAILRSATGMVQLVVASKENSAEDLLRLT

T8: DFNB31_3, Q9P202
T8 sequence (Q9P202 811-907, limits assumed, looked up): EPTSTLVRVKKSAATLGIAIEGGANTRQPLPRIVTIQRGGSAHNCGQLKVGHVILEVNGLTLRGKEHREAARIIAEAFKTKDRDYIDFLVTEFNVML

T9: NHERF3_1, Q5T2W1
T9 sequence (Q5T2W1 4-100, limits assumed, looked up): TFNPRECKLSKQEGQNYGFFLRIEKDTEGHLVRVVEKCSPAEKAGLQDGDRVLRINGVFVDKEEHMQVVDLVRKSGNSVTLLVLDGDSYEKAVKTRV

T10: PCLO, Q9Y6V0
T10 sequence (Q9Y6V0 4491-4600, limits assumed, looked up): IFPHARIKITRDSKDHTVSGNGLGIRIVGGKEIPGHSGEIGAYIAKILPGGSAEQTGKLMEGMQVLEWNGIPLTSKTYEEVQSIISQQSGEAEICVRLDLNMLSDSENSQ

T11: LIN7A, O14910
T11 sequence (O14910 103-200, limits assumed, looked up): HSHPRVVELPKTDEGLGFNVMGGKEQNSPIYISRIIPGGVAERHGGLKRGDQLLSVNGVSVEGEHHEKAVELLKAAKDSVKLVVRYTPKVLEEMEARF


Target: GRIP2_5, Q9C0E4
Experiment: holdup assay
Parameters: key: below the threshold = too weak to quantify, mostly under pKd 3.1 to 4
Conditions: plain residues with an end cap or a label only (N-terminal biotin on a linker: ado-ado)

Sequence of GRIP2_5, Q9C0E4 (Q9C0E4 544-642): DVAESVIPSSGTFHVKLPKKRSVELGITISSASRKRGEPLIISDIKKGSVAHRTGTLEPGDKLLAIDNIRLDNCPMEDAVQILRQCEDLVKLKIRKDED

| Binder | pKd |
| --- | --- |
| PSVYSRSQYV [CLDN8, P56748] | below the threshold |

Target: DLG1_3, Q12959
Experiment: holdup assay
Parameters: key: below the threshold = too weak to quantify, mostly under pKd 3.1 to 4
Conditions: plain residues with an end cap or a label only (N-terminal biotin on a linker: ado-ado)

| Binder | pKd |
| --- | --- |
| PSVYSRSQYV [CLDN8, P56748] | below the threshold |

Target: T1, MPP6, Q9NZW5
Experiment: holdup assay
Parameters: key: below the threshold = too weak to quantify, mostly under pKd 3.1 to 4
Conditions: plain residues with an end cap or a label only (N-terminal biotin on a linker: ado-ado)

| Binder | pKd |
| --- | --- |
| PSVYSRSQYV [CLDN8, P56748] | below the threshold |

Target: T2, SIPA1L2, Q9P2F8
Experiment: holdup assay
Parameters: key: below the threshold = too weak to quantify, mostly under pKd 3.1 to 4
Conditions: plain residues with an end cap or a label only (N-terminal biotin on a linker: ado-ado)

| Binder | pKd |
| --- | --- |
| PSVYSRSQYV [CLDN8, P56748] | below the threshold |

Target: GRIP2_6, Q9C0E4
Experiment: holdup assay
Parameters: key: below the threshold = too weak to quantify, mostly under pKd 3.1 to 4
Conditions: plain residues with an end cap or a label only (N-terminal biotin on a linker: ado-ado)

Sequence of GRIP2_6, Q9C0E4 (Q9C0E4 648-740): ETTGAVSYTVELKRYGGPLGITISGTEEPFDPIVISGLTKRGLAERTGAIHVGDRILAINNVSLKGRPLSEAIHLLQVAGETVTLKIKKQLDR

| Binder | pKd |
| --- | --- |
| PSVYSRSQYV [CLDN8, P56748] | 3.48 |

Target: FRMPD3, Q5JV73
Experiment: holdup assay
Parameters: key: below the threshold = too weak to quantify, mostly under pKd 3.1 to 4
Conditions: plain residues with an end cap or a label only (N-terminal biotin on a linker: ado-ado)

Sequence of FRMPD3, Q5JV73 (Q5JV73 12-100): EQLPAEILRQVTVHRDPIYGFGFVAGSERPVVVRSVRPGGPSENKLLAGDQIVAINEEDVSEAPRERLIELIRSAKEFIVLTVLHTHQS

| Binder | pKd |
| --- | --- |
| PSVYSRSQYV [CLDN8, P56748] | below the threshold |

Target: T3, SNTA1, Q13424
Experiment: holdup assay
Parameters: key: below the threshold = too weak to quantify, mostly under pKd 3.1 to 4
Conditions: plain residues with an end cap or a label only (N-terminal biotin on a linker: ado-ado)

| Binder | pKd |
| --- | --- |
| PSVYSRSQYV [CLDN8, P56748] | below the threshold |

Target: T4, NHERF3_4, Q5T2W1
Experiment: holdup assay
Parameters: key: below the threshold = too weak to quantify, mostly under pKd 3.1 to 4
Conditions: plain residues with an end cap or a label only (N-terminal biotin on a linker: ado-ado)

| Binder | pKd |
| --- | --- |
| PSVYSRSQYV [CLDN8, P56748] | 4.13 |

Target: T5, MPDZ_5, O75970
Experiment: holdup assay
Parameters: key: below the threshold = too weak to quantify, mostly under pKd 3.1 to 4
Conditions: plain residues with an end cap or a label only (N-terminal biotin on a linker: ado-ado)

| Binder | pKd |
| --- | --- |
| PSVYSRSQYV [CLDN8, P56748] | 4.18 |

Target: CASK, O14936
Experiment: holdup assay
Parameters: key: below the threshold = too weak to quantify, mostly under pKd 3.1 to 4
Conditions: plain residues with an end cap or a label only (N-terminal biotin on a linker: ado-ado)

Sequence of CASK, O14936 (O14936 487-570): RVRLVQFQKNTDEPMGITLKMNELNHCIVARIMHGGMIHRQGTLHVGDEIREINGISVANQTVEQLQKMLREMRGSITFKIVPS

| Binder | pKd |
| --- | --- |
| PSVYSRSQYV [CLDN8, P56748] | below the threshold |

Target: GRASP, Q7Z6J2
Experiment: holdup assay
Parameters: key: below the threshold = too weak to quantify, mostly under pKd 3.1 to 4
Conditions: plain residues with an end cap or a label only (N-terminal biotin on a linker: ado-ado)

Sequence of GRASP, Q7Z6J2 (Q7Z6J2 96-193): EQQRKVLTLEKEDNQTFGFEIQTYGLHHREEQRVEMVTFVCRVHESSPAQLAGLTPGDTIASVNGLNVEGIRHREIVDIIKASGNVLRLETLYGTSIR

| Binder | pKd |
| --- | --- |
| PSVYSRSQYV [CLDN8, P56748] | 3.51 |

Target: T6, DLG3_1, Q92796
Experiment: holdup assay
Parameters: key: below the threshold = too weak to quantify, mostly under pKd 3.1 to 4
Conditions: plain residues with an end cap or a label only (N-terminal biotin on a linker: ado-ado)

| Binder | pKd |
| --- | --- |
| PSVYSRSQYV [CLDN8, P56748] | below the threshold |

Target: DLG1_2, Q12959
Experiment: holdup assay
Parameters: key: below the threshold = too weak to quantify, mostly under pKd 3.1 to 4
Conditions: plain residues with an end cap or a label only (N-terminal biotin on a linker: ado-ado)

| Binder | pKd |
| --- | --- |
| PSVYSRSQYV [CLDN8, P56748] | 3.86 |

Target: HTRA2, O43464
Experiment: holdup assay
Parameters: key: below the threshold = too weak to quantify, mostly under pKd 3.1 to 4
Conditions: plain residues with an end cap or a label only (N-terminal biotin on a linker: ado-ado)

Sequence of HTRA2, O43464 (O43464 355-458): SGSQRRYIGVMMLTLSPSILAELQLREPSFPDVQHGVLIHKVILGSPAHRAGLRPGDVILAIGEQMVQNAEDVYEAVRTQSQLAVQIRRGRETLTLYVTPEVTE

| Binder | pKd |
| --- | --- |
| PSVYSRSQYV [CLDN8, P56748] | 4.46 |

Target: GRID2IP_2, A4D2P6
Experiment: holdup assay
Parameters: key: below the threshold = too weak to quantify, mostly under pKd 3.1 to 4
Conditions: plain residues with an end cap or a label only (N-terminal biotin on a linker: ado-ado)

Sequence of GRID2IP_2, A4D2P6 (A4D2P6 272-370): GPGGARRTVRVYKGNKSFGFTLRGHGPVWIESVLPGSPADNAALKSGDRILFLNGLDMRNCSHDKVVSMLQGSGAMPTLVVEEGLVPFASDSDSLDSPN

| Binder | pKd |
| --- | --- |
| PSVYSRSQYV [CLDN8, P56748] | 3.56 |

Target: T7, PDZD2_2, O15018
Experiment: holdup assay
Parameters: key: below the threshold = too weak to quantify, mostly under pKd 3.1 to 4
Conditions: plain residues with an end cap or a label only (N-terminal biotin on a linker: ado-ado)

| Binder | pKd |
| --- | --- |
| PSVYSRSQYV [CLDN8, P56748] | 4.55 |

Target: NHERF2_2, Q15599
Experiment: holdup assay
Parameters: key: below the threshold = too weak to quantify, mostly under pKd 3.1 to 4
Conditions: plain residues with an end cap or a label only (N-terminal biotin on a linker: ado-ado)

Sequence of NHERF2_2, Q15599 (Q15599 142-238): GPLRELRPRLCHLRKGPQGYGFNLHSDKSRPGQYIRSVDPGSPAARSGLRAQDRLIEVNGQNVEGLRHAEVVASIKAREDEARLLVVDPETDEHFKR

| Binder | pKd |
| --- | --- |
| PSVYSRSQYV [CLDN8, P56748] | below the threshold |

Target: MAGI2_2, Q86UL8
Experiment: holdup assay
Parameters: key: below the threshold = too weak to quantify, mostly under pKd 3.1 to 4
Conditions: plain residues with an end cap or a label only (N-terminal biotin on a linker: ado-ado)

Sequence of MAGI2_2, Q86UL8 (Q86UL8 410-522): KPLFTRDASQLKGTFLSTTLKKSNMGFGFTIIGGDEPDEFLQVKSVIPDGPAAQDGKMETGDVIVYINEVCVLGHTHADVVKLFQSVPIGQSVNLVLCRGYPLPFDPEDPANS

| Binder | pKd |
| --- | --- |
| PSVYSRSQYV [CLDN8, P56748] | below the threshold |

Target: MAST1, Q9Y2H9
Experiment: holdup assay
Parameters: key: below the threshold = too weak to quantify, mostly under pKd 3.1 to 4
Conditions: plain residues with an end cap or a label only (N-terminal biotin on a linker: ado-ado)

Sequence of MAST1, Q9Y2H9 (Q9Y2H9 962-1065): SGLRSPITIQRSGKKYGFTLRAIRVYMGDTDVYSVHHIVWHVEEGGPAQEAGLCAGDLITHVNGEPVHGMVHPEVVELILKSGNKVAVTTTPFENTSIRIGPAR

| Binder | pKd |
| --- | --- |
| PSVYSRSQYV [CLDN8, P56748] | 3.95 |

Target: T8, DFNB31_3, Q9P202
Experiment: holdup assay
Parameters: key: below the threshold = too weak to quantify, mostly under pKd 3.1 to 4
Conditions: plain residues with an end cap or a label only (N-terminal biotin on a linker: ado-ado)

| Binder | pKd |
| --- | --- |
| PSVYSRSQYV [CLDN8, P56748] | below the threshold |

Target: T9, NHERF3_1, Q5T2W1
Experiment: holdup assay
Parameters: key: below the threshold = too weak to quantify, mostly under pKd 3.1 to 4
Conditions: plain residues with an end cap or a label only (N-terminal biotin on a linker: ado-ado)

| Binder | pKd |
| --- | --- |
| PSVYSRSQYV [CLDN8, P56748] | 5.34 |

Target: T10, PCLO, Q9Y6V0
Experiment: holdup assay
Parameters: key: below the threshold = too weak to quantify, mostly under pKd 3.1 to 4
Conditions: plain residues with an end cap or a label only (N-terminal biotin on a linker: ado-ado)

| Binder | pKd |
| --- | --- |
| PSVYSRSQYV [CLDN8, P56748] | below the threshold |

Target: FRMPD2_3, Q68DX3
Experiment: holdup assay
Parameters: key: below the threshold = too weak to quantify, mostly under pKd 3.1 to 4
Conditions: plain residues with an end cap or a label only (N-terminal biotin on a linker: ado-ado)

Sequence of FRMPD2_3, Q68DX3 (Q68DX3 1073-1166): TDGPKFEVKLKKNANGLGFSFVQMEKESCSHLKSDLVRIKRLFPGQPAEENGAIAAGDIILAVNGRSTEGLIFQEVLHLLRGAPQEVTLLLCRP

| Binder | pKd |
| --- | --- |
| PSVYSRSQYV [CLDN8, P56748] | below the threshold |

Target: DLG1_1, Q12959
Experiment: holdup assay
Parameters: key: below the threshold = too weak to quantify, mostly under pKd 3.1 to 4
Conditions: plain residues with an end cap or a label only (N-terminal biotin on a linker: ado-ado)

| Binder | pKd |
| --- | --- |
| PSVYSRSQYV [CLDN8, P56748] | below the threshold |

Target: T11, LIN7A, O14910
Experiment: holdup assay
Parameters: key: below the threshold = too weak to quantify, mostly under pKd 3.1 to 4
Conditions: plain residues with an end cap or a label only (N-terminal biotin on a linker: ado-ado)

| Binder | pKd |
| --- | --- |
| PSVYSRSQYV [CLDN8, P56748] | below the threshold |

Target: GOPC, Q9HD26
Experiment: holdup assay
Parameters: key: below the threshold = too weak to quantify, mostly under pKd 3.1 to 4
Conditions: plain residues with an end cap or a label only (N-terminal biotin on a linker: ado-ado)

| Binder | pKd |
| --- | --- |
| PSVYSRSQYV [CLDN8, P56748] | below the threshold |

Target: IL16_3, Q14005
Experiment: holdup assay
Parameters: key: below the threshold = too weak to quantify, mostly under pKd 3.1 to 4
Conditions: plain residues with an end cap or a label only (N-terminal biotin on a linker: ado-ado)

Sequence of IL16_3, Q14005 (Q14005 1107-1207): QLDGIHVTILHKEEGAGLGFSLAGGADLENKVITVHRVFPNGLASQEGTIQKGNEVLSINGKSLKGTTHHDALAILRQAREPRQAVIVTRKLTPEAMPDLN

| Binder | pKd |
| --- | --- |
| PSVYSRSQYV [CLDN8, P56748] | below the threshold |
